The numbers were not newly measured in publication PMC10565355, which cites them from elsewhere.

This data set concerns the target Fibrinogen (Homo sapiens) (UniProt P02671).
Chain of UniProt P02671 (P02671 36-866, chain 1 of 3): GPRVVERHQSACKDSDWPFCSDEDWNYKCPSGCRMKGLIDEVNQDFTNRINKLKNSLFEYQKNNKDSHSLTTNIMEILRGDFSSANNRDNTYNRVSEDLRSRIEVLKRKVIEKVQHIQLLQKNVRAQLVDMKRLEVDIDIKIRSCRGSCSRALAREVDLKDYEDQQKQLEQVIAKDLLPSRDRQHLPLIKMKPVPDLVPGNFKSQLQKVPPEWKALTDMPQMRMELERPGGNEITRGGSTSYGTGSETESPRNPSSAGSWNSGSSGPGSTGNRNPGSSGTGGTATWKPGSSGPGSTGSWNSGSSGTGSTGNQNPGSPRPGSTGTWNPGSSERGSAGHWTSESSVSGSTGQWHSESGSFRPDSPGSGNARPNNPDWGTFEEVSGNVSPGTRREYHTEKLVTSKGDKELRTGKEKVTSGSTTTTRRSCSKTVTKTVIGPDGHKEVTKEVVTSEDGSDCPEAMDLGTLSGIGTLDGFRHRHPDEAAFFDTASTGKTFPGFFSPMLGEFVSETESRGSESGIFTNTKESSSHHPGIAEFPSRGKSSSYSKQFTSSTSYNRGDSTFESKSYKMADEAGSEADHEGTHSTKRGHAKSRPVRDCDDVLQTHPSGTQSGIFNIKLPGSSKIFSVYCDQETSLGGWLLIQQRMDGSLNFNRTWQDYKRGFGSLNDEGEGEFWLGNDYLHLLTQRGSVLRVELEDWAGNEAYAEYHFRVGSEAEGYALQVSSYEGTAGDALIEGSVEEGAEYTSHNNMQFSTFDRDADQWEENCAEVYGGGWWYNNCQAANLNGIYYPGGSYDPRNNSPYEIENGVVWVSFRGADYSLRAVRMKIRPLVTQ
Chain of UniProt P02671 (P02675 45-491, chain 2 of 3, further chain): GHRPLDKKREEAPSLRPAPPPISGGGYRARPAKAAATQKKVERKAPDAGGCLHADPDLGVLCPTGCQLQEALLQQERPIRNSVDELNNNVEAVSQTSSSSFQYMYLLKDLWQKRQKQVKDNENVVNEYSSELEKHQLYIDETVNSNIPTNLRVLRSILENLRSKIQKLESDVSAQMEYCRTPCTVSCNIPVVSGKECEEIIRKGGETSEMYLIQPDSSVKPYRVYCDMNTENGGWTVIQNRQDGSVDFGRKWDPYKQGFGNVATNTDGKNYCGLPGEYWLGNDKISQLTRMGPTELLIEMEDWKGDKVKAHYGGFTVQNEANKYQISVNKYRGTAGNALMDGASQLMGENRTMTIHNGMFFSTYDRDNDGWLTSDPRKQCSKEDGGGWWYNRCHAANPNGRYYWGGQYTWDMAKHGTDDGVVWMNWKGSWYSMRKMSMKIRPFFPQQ
Chain of UniProt P02671 (P02679 27-453, chain 3 of 3, further chain): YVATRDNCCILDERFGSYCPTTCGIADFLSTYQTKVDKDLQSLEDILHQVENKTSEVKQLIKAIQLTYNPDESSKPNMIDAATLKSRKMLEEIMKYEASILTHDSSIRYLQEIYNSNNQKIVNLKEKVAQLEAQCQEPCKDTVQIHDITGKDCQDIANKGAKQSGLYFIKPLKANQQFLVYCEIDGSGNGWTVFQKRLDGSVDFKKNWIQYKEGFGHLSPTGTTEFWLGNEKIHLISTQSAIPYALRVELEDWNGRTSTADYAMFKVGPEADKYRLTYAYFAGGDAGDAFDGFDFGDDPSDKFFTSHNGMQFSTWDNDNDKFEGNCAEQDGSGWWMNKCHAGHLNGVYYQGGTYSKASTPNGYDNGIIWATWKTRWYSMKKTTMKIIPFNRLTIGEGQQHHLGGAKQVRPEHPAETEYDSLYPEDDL

Efb EfbA (from UniProt A6QG59): the dissociation constant Kd (in general, the constant that tells how readily two partners part at equilibrium) was 1000 nM.
